We go through one substance from PMC10334784.

In the assay the target is HCoV-OC43 nucleocapsid (N) protein, 2X-StrepTag tagged (HCoV-OC43) (UniProt P33469). Put plainly: BLI.
Sequence of HCoV-OC43 nucleocapsid (N) protein, 2X-StrepTag tagged (HCoV-OC43) (P33469 whole entry): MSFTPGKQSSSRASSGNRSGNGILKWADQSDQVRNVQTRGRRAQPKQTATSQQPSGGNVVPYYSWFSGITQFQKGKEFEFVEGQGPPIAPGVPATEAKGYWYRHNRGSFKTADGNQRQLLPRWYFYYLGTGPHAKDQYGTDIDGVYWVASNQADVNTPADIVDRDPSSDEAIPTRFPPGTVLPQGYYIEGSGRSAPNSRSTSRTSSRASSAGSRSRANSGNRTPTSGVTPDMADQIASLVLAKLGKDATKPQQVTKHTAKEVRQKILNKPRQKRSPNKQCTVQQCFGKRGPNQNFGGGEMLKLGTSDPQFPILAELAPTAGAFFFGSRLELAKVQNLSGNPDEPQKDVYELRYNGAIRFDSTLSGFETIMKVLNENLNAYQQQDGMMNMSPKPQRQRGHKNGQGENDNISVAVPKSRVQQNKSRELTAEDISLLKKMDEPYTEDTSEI

As usually defined, the Kd is the free concentration of one partner at which half of the binding sites on the other are occupied at equilibrium, for simple one-to-one binding. Higher therefore signals lower affinity. As usually defined, the koff is a measure of how fast the partners let go of each other. The kon is the second-order rate constant of association. High values mean fast association, low ones slow association. With CXCL4 (ligand), the Kd amounted to 170 nM, the koff was found to be 0.00088 s⁻¹ and the kon is 5300 M⁻¹ s⁻¹.
